These results are taken from PMC6531468, “Combinatorial recognition of clustered RNA elements by the multidomain RNA-binding protein IMP3”.

In one series the target is IMP3 KH1-d2 (Homo sapiens, UniProt O00425 192-355, K294D;E295D). The series can be described thus: ITC; EMSA: 10 mM Tris-HCl pH 7.5, 150 mM NaCl, 0.5 mM EDTA, 0.5 mM DTT, 0.1% NP-40, 5% glycerol, tRNA+BSA, 5 nM RNA, 30 min RT then ice; ITC/NMR: 20 mM Bis-Tris, 150 mM NaCl, 2 mM TCEP (protein buffer pH 6.5), ITC RT, NMR 25 C. The note with it: protein: recombinant; tags: Trx-His6 removed by TEV, leaves GAMA. (ITC needs no label: the signal is the heat of the interaction.)

A further series deals with IMP3 KH1-2 WT (Homo sapiens, UniProt O00425 192-355). The description is as above. The note with it: protein: recombinant; tags: Trx-His6 removed by TEV, leaves GAMA.
In a further series the target is IMP3 KHd1-2 (Homo sapiens, UniProt O00425 192-355, K213D;E214D). The series is described as above. The settings on record: protein: recombinant; tags: Trx-His6 removed by TEV, leaves GAMA.
Series [1] deals with T1, IMP3 full-length (Homo sapiens, UniProt O00425 1-579). The series can be described thus: EMSA; EMSA: 10 mM Tris-HCl pH 7.5, 150 mM NaCl, 0.5 mM EDTA, 0.5 mM DTT, 0.1% NP-40, 5% glycerol, tRNA+BSA, 5 nM RNA, 30 min RT then ice; ITC/NMR: 20 mM Bis-Tris, 150 mM NaCl, 2 mM TCEP (protein buffer pH 6.5), ITC RT, NMR 25 C. The settings on record: protein: recombinant; tags: N-terminal GST (pGEX-6P2); C-terminal His6 removed by TEV; label: 32P-UTP. On the technique in general: In EMSA bound probe runs differently from free probe, usually more slowly.

Another series addresses IMP3 RRM1-2 (Homo sapiens, UniProt O00425 2-156). The series can be described thus: ITC; EMSA: 10 mM Tris-HCl pH 7.5, 150 mM NaCl, 0.5 mM EDTA, 0.5 mM DTT, 0.1% NP-40, 5% glycerol, tRNA+BSA, 5 nM RNA, 30 min RT then ice; ITC/NMR: 20 mM Bis-Tris, 150 mM NaCl, 2 mM TCEP (protein buffer pH 6.5), ITC RT, NMR 25 C. The note with it: protein: recombinant; tags: Trx-His6 removed by TEV; primer note: GA-MA-K3 N-terminus.

Series [2] has as its target T1, IMP3 full-length. The series can be described thus: EMSA; tRNA and BSA competitors; EMSA: 10 mM Tris-HCl pH 7.5, 150 mM NaCl, 0.5 mM EDTA, 0.5 mM DTT, 0.1% NP-40, 5% glycerol, tRNA+BSA, 5 nM RNA, 30 min RT then ice; ITC/NMR: 20 mM Bis-Tris, 150 mM NaCl, 2 mM TCEP (protein buffer pH 6.5), ITC RT, NMR 25 C. The settings on record: protein: recombinant; tags: N-terminal GST (pGEX-6P2); C-terminal His6 removed by TEV; label: 32P-UTP.

In a further series the target is IMP3 dRRM1 (Homo sapiens, UniProt O00425 1-579, Y5A;Y39A;F41A). Put plainly: EMSA; Hill n 2.8; EMSA: 10 mM Tris-HCl pH 7.5, 150 mM NaCl, 0.5 mM EDTA, 0.5 mM DTT, 0.1% NP-40, 5% glycerol, tRNA+BSA, 5 nM RNA, 30 min RT then ice; ITC/NMR: 20 mM Bis-Tris, 150 mM NaCl, 2 mM TCEP (protein buffer pH 6.5), ITC RT, NMR 25 C. The settings on record: protein: recombinant; tags: GST; label: 32P-UTP.

Another series deals with IMP3 dKH1-2 (Homo sapiens, UniProt O00425 1-579, K213D;E214D;K294D;E295D). The series can be described thus: EMSA; Hill n 1.9; EMSA: 10 mM Tris-HCl pH 7.5, 150 mM NaCl, 0.5 mM EDTA, 0.5 mM DTT, 0.1% NP-40, 5% glycerol, tRNA+BSA, 5 nM RNA, 30 min RT then ice; ITC/NMR: 20 mM Bis-Tris, 150 mM NaCl, 2 mM TCEP (protein buffer pH 6.5), ITC RT, NMR 25 C. The note with it: protein: recombinant; tags: GST; label: 32P-UTP.
IMP3 dKH1-2, sequence (O00425 whole entry K213D/E214D/K294D/E295D): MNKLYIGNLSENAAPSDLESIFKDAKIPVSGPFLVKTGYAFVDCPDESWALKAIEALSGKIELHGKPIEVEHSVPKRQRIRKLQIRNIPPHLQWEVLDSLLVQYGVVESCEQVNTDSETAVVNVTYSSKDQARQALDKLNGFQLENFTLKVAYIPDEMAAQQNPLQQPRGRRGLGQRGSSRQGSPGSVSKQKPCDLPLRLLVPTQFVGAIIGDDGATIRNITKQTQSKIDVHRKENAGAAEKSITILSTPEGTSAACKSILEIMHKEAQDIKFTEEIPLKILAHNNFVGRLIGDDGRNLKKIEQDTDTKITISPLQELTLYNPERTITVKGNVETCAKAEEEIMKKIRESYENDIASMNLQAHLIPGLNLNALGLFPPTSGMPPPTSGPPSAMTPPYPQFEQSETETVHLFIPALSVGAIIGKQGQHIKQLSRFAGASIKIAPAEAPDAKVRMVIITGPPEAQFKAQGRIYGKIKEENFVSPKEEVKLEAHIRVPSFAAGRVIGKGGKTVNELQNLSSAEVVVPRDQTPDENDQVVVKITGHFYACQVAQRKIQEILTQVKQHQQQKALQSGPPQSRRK

IMP3 RRM1-2, sequence (O00425 2-156): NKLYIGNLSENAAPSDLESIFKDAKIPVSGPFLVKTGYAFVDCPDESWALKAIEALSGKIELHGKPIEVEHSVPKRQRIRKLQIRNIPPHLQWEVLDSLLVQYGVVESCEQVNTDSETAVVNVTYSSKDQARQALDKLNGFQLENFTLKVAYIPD
T1 sequence (O00425 whole entry): as the sequence (O00425 whole entry K213D/E214D/K294D/E295D) above, with D213K, D214E, D294K, D295E counted along it
IMP3 KH1-d2, sequence (O00425 192-355 K294D/E295D): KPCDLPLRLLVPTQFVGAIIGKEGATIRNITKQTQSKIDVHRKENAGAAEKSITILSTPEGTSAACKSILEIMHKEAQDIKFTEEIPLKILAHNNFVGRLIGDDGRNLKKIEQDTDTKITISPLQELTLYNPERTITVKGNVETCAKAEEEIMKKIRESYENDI
IMP3 dRRM1, sequence (O00425 whole entry Y5A/Y39A/F41A): as the sequence (O00425 whole entry K213D/E214D/K294D/E295D) above, with Y5A, Y39A, F41A, D213K, D214E, D294K, D295E counted along it
IMP3 KH1-2 WT, sequence (O00425 192-355): as the sequence (O00425 192-355 K294D/E295D) above, with D103K, D104E counted along it
IMP3 KHd1-2, sequence (O00425 192-355 K213D/E214D): as the sequence (O00425 192-355 K294D/E295D) above, with K22D, E23D, D103K, D104E counted along it

B1: GGC (CGG) 7-mer (ssRNA)
RNA: UCGGCAC
By Kd is commonly meant a measure of binding affinity in units of concentration. On to B1, for which the Kd turned out to be 39000 ± 8000 nM with IMP3 KH1-d2 and 45000 ± 8000 nM with IMP3 KH1-2 WT. Further, the binding result in the series with IMP3 KHd1-2 is given as “no binding”.

B2: ANKRD17 exon 29 (ssRNA)
RNA: GGGUCUGUCCGAAGGCAGCUUUUUGUCACAGUUGUGAAGACAUCCAAUCGCCACACAACAACAGUCACAACCACGGCAAGCAACAACAACACUGCACCCACAAAUGCCACAUAUCCUAUGC
For the molecule B2, the Kd in the series with IMP3 full-length [1] came out at 1.6 ± 0.4 nM.

B3: (CA)3 (ssRNA)
RNA: CACACA
With B3, the Kd in the series with IMP3 RRM1-2 came to 8000 ± 3000 nM.

B4: (GU)5 (ssRNA)
RNA: GUGUGUGUGU
As for B4, the equilibrium dissociation constant (Kd) with IMP3 RRM1-2 was found to be 49000 ± 3000 nM.

B5: 101-mer (CA)4<-> (ssRNA)
RNA: GGGAGGGACACACACAGGAAGGCAAUUUUGGAGGAACUACAGAACACAUAUCGCAGCUAAAACACAAUUUUGGAGGAACUACAGAAUGCGGCUAUCAAGGG
As for B5, in the series with IMP3 full-length [1], the Kd came to 5.6 ± 0.8 nM.

B6: 101-mer (ssRNA)
RNA: GGGAGGGAGGAAGGCAAUUUUGGAGGAACUACAGAACACAUAUCGCAGCUAAAACACAAUUUUGGAGGAACUACAGAAUGCGGCUAUCCACACACAAAGGG
For B6, the Kd with IMP3 full-length [2] is 3.5 ± 0.7 nM; with IMP3 dRRM1, 29.2 ± 1 nM; in the series with IMP3 dKH1-2, 50.7 ± 1.6 nM.

B7: 101-mer GGC->UG (ssRNA)
RNA: GGGAGGGAGGAAUGUGAUUUUGGAGGAACUACAGAACACAUAUCGCAGCUAAAACACAAUUUUGGAGGAACUACAGAAUGUGUGUAUCCACACACAAAGGG
Regarding B7, the Kd in the series with IMP3 full-length [1] came out at 23.8 ± 0.7 nM.

B8: 101-mer GGC<->CA (ssRNA)
RNA: GGGAGGGAGGAAGGCAAUUUUGGAGGAACUACAGAACACAUAUCGCAGCUAAAACGGCUAUUUGGAGGAACUACAGAAUGCACAUAUCCACACACAAAGGG
On to B8, for which the Kd in the series with IMP3 full-length [1] was found to be 15.4 ± 0.6 nM.

B9: 101-mer CA->UG (ssRNA)
RNA: GGGAGGGAGGAAGGCAAUUUUGGAGGAACUACAGAAUGUGUAUCGCAGCUAAAAUGUGAUUUUGGAGGAACUACAGAAUGCGGCUAUCUGUGUGUGAAGGG
For B9, the Kd in the series with IMP3 full-length [1] worked out at 70.5 ± 3.2 nM.

B10: 101-mer GGC<->CA_UG (ssRNA)
RNA: GGGAGGGAGGAAGGCAAUUUUGGAGGAACUACAGAAUGUGUAUCGCAGCUAAAACGGCUAUUUGGAGGAACUACAGAAUGUGUGUAUCUGUGUGUGAAGGG
Regarding B10, the Kd with IMP3 full-length [1] is 34.9 ± 0.7 nM.

B11: 101-mer allUG (ssRNA)
RNA: GGGAGGGAGGAAUGUGAUUUUGGAGGAACUACAGAAUGUGUAUCGCAGCUAAAAUGUGAUUUUGGAGGAACUACAGAAUGUGUGUAUCUGUGUGUGAAGGG
B11: the Kd with IMP3 full-length [1] was found to be 61.1 ± 3.6 nM.

B12: CA 7-mer (ssRNA)
RNA: AACACAA
As to B12, in the series with IMP3 KH1-d2, the binding result was “no binding”.

B13: (CA)5 (ssRNA)
RNA: CACACACACA
As for B13, the Kd with IMP3 RRM1-2 was found to be 9000 ± 2000 nM.
